Results taken from the supplement of paper PMC10567573.

B1: ALDH8A1 (parent)
chain: RVAKKLQSGLVWTNCWLIRELNLP
B2: DULLARD (parent)
chain: LVVFTASMEIYGSAVADKLDNSRS
B3: MIA2 (parent)
chain: DMVSNIELPTRIHEEVYFEPSSSK

Variants of: B1
Experiment: protein stability index of a GFP-peptide fusion (GPS, HEK-293T) (PSI 1-6); higher = more stable
Details: c terminus: a fixed tail appended
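Further: lentivirally expressed fusions sorted by FACS into six bins by GFP to DsRed ratio, PSI derived from sequencing read proportions per bin multiplied by bin number.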

Protein stability index: each site, then its substitutions
R1: D 2.04, C 1.74

Variants of: B2
Experiment: as above
Details: c terminus: a fixed tail appended

Protein stability index: each site, then its substitutions
K18: V 2.79, N 2.74, H 1.88, L 2.77, Y 1.55, I 4.09, D 2.94, M 2.11, Q 2.49, G 1.99
V2: I 2.18, C 1.61, D 3.02, R 2.25, W 3.1, K 1.78, T 1.72, E 2.46, H 2.16, M 2.25, P 2.93, G 2.52, N 2.5, A 2.1, S 2.35, L 1.99, Q 1.96
D20: K 1.88, A 3.32, Y 2.51, T 2.02, Q 3.44, V 2.63, H 1.99, P 2.48, C 1.69, E 1.97, N 1.6, S 3.14, L 2.95, R 1.2
V3: H 2.21, D 3.23, Q 2.62, N 2.75, A 2.48, L 1.71, W 1.56, C 2.03, S 1.86, M 3.28, P 3.51, Y 2.68, T 1.99, F 2.15, R 2.23, E 2.33, G 2.75, K 2
A14: E 1.04, T 3.78, C 2.02, P 1.73, S 2.32, D 1.19, Q 1.99, R 4.28, V 1.69, N 2.84
T5: R 2.6, N 1.76, A 2.22, F 2.49, E 2, H 1.99, V 3.31, S 3.15, P 1.66, M 3.54, D 2.09, Q 2.37
R23: D 1.75, V 2.42, S 2.05, E 2.94, C 2.03, P 2.61, Q 1.86, T 2.68, F 2.67, H 2.77, K 1.71, G 1.66
A16: D 3.11, I 2.93, E 2.34, Q 2.02, N 1.46, K 2.89, H 3.11, P 3.45, F 4.14, R 3.75
L1: A 1.73, P 3.74, C 1.94, D 2.44, G 2.31, T 1.82, K 2.09, Q 2.52, Y 2.57, V 3.46, R 2.49, E 2.25, S 1.94, H 1.19, M 2.29, N 2.9, F 2
G12: T 2.86, L 2.98, F 2.79, Q 1.85, E 1.45, V 3.44, P 2.37, W 2.26
S7: N 2.14, K 2.07, T 2.48, A 1.85, C 3.12, F 2.06, G 1.24, V 2.27, H 3.69, P 1.93, I 4.7, M 2.8, D 1.55
Y11: K 1.51, H 1.58, I 2.51, D 1.38, M 1.56, S 2.13, A 3.03, Q 2.07, E 2.44, C 2.48, G 1.97, R 1.88, N 3.21, P 2.01
V15: E 2.32, D 1.11, I 3.03, Y 1.87, A 2, R 3.02, S 2.48, N 1.87, C 1.95, G 2.14, H 1.82, K 2.26, L 1.48, T 1.66
F4: C 1.08, E 2.27, I 3.55, N 2.4, S 2.34, T 1.56, A 1.61, G 2.24, Y 2.93, D 2.05, H 2.78, W 3.77, Q 2.78, K 2.91, P 3.61, R 2.14
A6: E 1.54, D 1.47, C 2.65, Q 2.02, P 1.43, I 4.3, L 2.11, N 1.53, K 1.41, G 1.57, Y 2.47, R 2.08, T 2.8, H 2.33
S22: G 2.5, R 3.98, A 2.39, E 4.27, K 2.58, I 2.37, M 2.31, T 1.89, Y 2.24, D 2.71, P 2.62
S24: Q 2.15, A 2.29, L 2.2, I 1.3, H 2.46, R 1.88, T 2.71, E 2.29, C 2.69
N21: V 1.5, P 3, D 2.47, T 2.67, R 2.68, S 4.01, K 3.06, A 2.08, G 1.8
D17: R 2.48, L 3.58, V 1.97, K 2.26, Y 2.6, H 3
M8: D 2.65, T 1.82, S 1.02, G 1.31, A 1.59, H 2.98, K 1.96, E 1.83, Q 1.49, N 1.65, F 3.03, V 2.73, C 1.14, Y 2.64, R 1.9, W 1.05, P 1.18, L 2.01, I 4.57
L19: N 1.23, F 2.41, E 2.17, D 1.73, Q 2.45, R 1.87, P 2.23, I 1.62, M 2.41, W 2.27, K 1.66, Y 3.37, S 2.02, H 1.54
E9: F 2.73, C 2.96, V 3, D 2.27, W 2.46, N 1.74, P 3.01, R 2.71, A 2.72, L 3.73
I10: F 2.94, Q 1.62, L 1.34, T 1.87, M 1.28, C 1.75, E 1.5, K 2.05, Y 1.92, H 1.44, N 1.98, S 1.05, V 2.24, A 1.05, P 2.16
S13: A 2.72, Y 2.58, T 2.42, Q 1.29, D 2.37, G 1.68, C 2.05, R 2.84, I 2.46, P 2.48, E 1.36

Variants of: B3
Experiment: as above
Details: c terminus: a fixed tail appended

Protein stability index of substitutions, site by site:
S23: T 3.92, M 3.29, Q 4.41, N 3.98, P 3.67, L 3.49, V 3.82, Y 4.18, W 3.08, K 3.65, R 3.56
K24: L 3.84, Y 3.32, S 3.95, G 4.55, N 4.17, I 2.98, A 3.64, F 3.28, Q 4.89, P 4.08, R 3.85, V 3.51, W 2.52, M 3.57, E 4.11, T 4.02, C 3.66, H 3.56
